Test results published in the nanobody polyreactivity screen of Harvey et al. (2022).

assay: yeast display, Sf9 membrane polyspecificity reagent, FACS + sequencing; frameworks hold sequencing errors
In short: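 Galactose induction of a Saccharomyces cerevisiae BJ5465 synthetic nanobody display library ran 36–48 hours. The cells were then stained for 1 hour at 4 °C with 10% biotinylated, detergent-solubilized Sf9 membrane reagent, pulled down on streptavidin microbeads and FACS-sorted into low and high (top ~1%) gates on expression and reagent-binding fluorescence. Labels for polyreactivity follow the gate of origin.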

Sequence	polyreactivity (PSR sort gate)
QVQLVESGGGLVQAGGSLRLSCAASGRIFTVYALGWSRQAPGKERELVAAISRGRSTYADSVKGRFTISRDNAKNTVYLQLNSLKPEDTGVYYCAAVNFRKGEDYWGQGTQVTVSS	high polyreactivity
QVQLVESGGGLVQAGGSLRLSCAASGRIFTVYGMGWYRQAPGKERELVAAISWSGGGTYYADSVKGRFTISRDNAKNTVYLHMNSLKPEDTAVYYCNADRQYTWSLVFFSSDYDYWGQGTQVTVSS	low polyreactivity
QVQLVESGGGLVQAGGSLRLSCAASGRIFTWNARGWYRQAPGKERELVARISSGTRTNYADSVKGRFTISRDNAKNTVYLQMYSLKPEDTAVYYCAAAAKRTDAYHNRRYYWGQGTQVTVSS	high polyreactivity
QVQLVESGGGLVQAGGSLRLSCAASGRIFTWYAMGWYRQAPGKERELVAVISSGGSTYYADSVKGRFTISRDNAKNTVYLQMNSLKPEDTAVYYCAARRSYYGRSYYYWGQGTQVTVSS	high polyreactivity
QVQLVESGGGLVQAGGSLRLSCAASGRIFTYNAMGWYIQAPGKERELVAAISSSVGSTYYADSVKGRFTISRDNAKNTVYLQMNSLKPEDTAVYYCAAYSYRNLRFYYWGQGTQVTVSS	high polyreactivity
QVQLVESGGGLVQAGGSLRLSCAASGRIFTYNARGWYRQAPGKERELVAAITYRGSSTYYADSVKGRFTISRDIAKNTVYLQMNSLKAEDTAVYYCAAVFSGFYYAYDYWGQGTQVTVSS	high polyreactivity
QVQLVESGGGLVQAGGSLRLSCAASGRIFTYNTMGWYRQATGKEREFVASITYSGSSTYYADSVKGRFTISRDNAKNTVYLQMNSLKPEDTAVYYCATRYGYSDGDYWGQRTQVTVSS	low polyreactivity
QVQLVESGGGLVQAGGSLRLSCAASGRIFTYYAMGWYRQAPGKERELVAAINGRGGRTYYADSVKGRFTISRDNAKNTVYLQMNSLKPEDTAVYYCAARGYAPDTYGYWGQGTQVTVSS	high polyreactivity
QVQLVESGGGLVQAGGSLRLSCAASGRIFTYYGMGWYRQARGKERELVAAISSSGDSTFYADSVKGRFTISRDNGKNTVYLQMNSLKPEDTAVYYCAADYYYVWYDYWGQGTQVTVSS	low polyreactivity
QVQLVESGGGLVQAGGSLRLSCAASGRIFTYYTMGWYRRAPGKEREFVAAISWSGTSTYYADSVKGRFTISRDNAKNTVYLQMNSLKPEETAVFNCAARNWYSRYDYWGQGTQVTVSS	high polyreactivity
QVQLVESGGGLVQAGGSLRLSCAASGRIFVASAMGWYRQAPGKERELVAAISKTGGSTYYADSVKGRFTISRDNAKKTVYLQMNSLKPEDTAVYYCAADVYRRFDYWGQGTQVTVSS	low polyreactivity
QVQLVESGGGLVQAGGSLRLSCAASGRIFVAYTRGWYRQAPGKERELVAAITWNSGSSTYYADSVKGRFTISGDNAKNTVYLQMNSLKPEDTAVYYCAARSAGRYWNYYWGQGTQVTVSS	high polyreactivity
QVQLVESGGGLVQAGGSLRLSCAASGRIFVCYAMGLYRQAPGKERELVAAISSSCGSTYYADSVKGRFTISRDKAKNTVYLQMNSLKPEDTAVYYCNTHQRSRMDYWVQGTQVTVSS	low polyreactivity
QVQLVESGGGLVQAGGSLRLSCAASGRIFVCYAMGWYRQAPVKERELLAAITCRGGSTYYADSVKGRFTISRDNAKNTVYLQMNSLKPEDTEVYYCAAVGHSGGRRYDYWGQGTQVTVSS	high polyreactivity
QVQLVESGGGLVQAGGSLRLSCAASGRIFVDYAMGWYRQAPGKERELVAAIRSSGGSTYYADSVKGRFTISRDNAKNTVYLQMNSLKPEDTAVYYCNTPKYLRASSGYNYWGQGTQVTVSS	high polyreactivity
QVQLVESGGGLVQAGGSLRLSCAASGRIFVDYDMGWYRQAPGKERELVAAISFDGGNTYADSVKGRFTISRDNAKNTVYLQMNSLKPEDTAVYYCARDDTSPGYGDQSSNAAYYYWGQGTQVTVSS	low polyreactivity
QVQLVESGGGLVQAGGSLRLSCAASGRIFVFYAMGWYRQAPGKERELVAAISKSVGPTYYADSVKGRFTISRDNAKNTVYLQMNSLKPEDTAVYYCASDVDRFFTYKYDYWGQGTQVTVSS	low polyreactivity
QVQLVESGGGLVQAGGSLRLSCAASGRIFVGNALGWYRKAPGKERELVAAISGSGDSTYYADSVKGRFTISRDNAKNTVYLQMNSLKPEDTAVYYCNVDYDFVIYYYWYYPGYDYWGQGTQVTVSS	low polyreactivity
QVQLVESGGGLVQAGGSLRLSCAASGRIFVGYAMGWYRQAPGKERELVAGIRYSGGSTYYADSVKGRFTISRDNAKNTVYLQMNSLKPEDTAVYYCANQVWHYAGRPNYKYDYWGQGTQVTVSS	low polyreactivity
QVQLVESGGGLVQAGGSLRLSCAASGRIFVGYTMGWYRQAPGKERELVAAISSRGGRTNYADSVKGRFTISRDNAKNTVYLQMNSLKPEDTAVYYCATRLYPHQYYYWGQGSQVTVSS	high polyreactivity

Sequence	polyreactivity (PSR sort gate)
QVQLVESGGGLVQAGGSLRLSCAASGRIFVGYTMGWYRQAPGKERELVASISWSGASTYYADSVKGRFTISRDNAKNTVYLQMNSLKPEDTAVYYCAARYYKYYNSYDYWGQGTQVTVSS	high polyreactivity
QVQLVESGGGLVQAGGSLRLSCAASGRIFVINAMGWYRQAPGKERELVAAIRSGGSTNYADSVKGRFTISRDNAKNTVYLQMNSLKPEDTAVNYCAARNSGRRSKAYDFKMNYWGQGTQVTVSS	high polyreactivity
QVQLVESGGGLVQAGGSLRLSCAASGRIFVINDMGWYRKATGKERELVAAITWGSSTYADSVKGRFTISRDNAKNTVYLQMNSLKPEDTAVYYCARDVYPSTWEYDYWGQGTQVTVSS	low polyreactivity
QVQLVESGGGLVQAGGSLRLSCAASGRIFVINTMGWYRQAPGKERELVAAISRGGSTNYADSVKGRFTISRDNAKNTVYLQMNSLKPEDTAVYYCAATGYILFAGGGYDYWGQGTQVTVSS	low polyreactivity
QVQLVESGGGLVQAGGSLRLSCAASGRIFVKNAMGWYRQAPGKERELVAAISSGSSTNYADSVKGRFTISRDNAKNTVYLQMNSLKPEDTAVYYCAARQAQWDDYWGQGTQVTVSS	high polyreactivity
QVQLVESGGGLVQAGGSLRLSCAASGRIFVKSAMGWYRPAPGQERELVAAITSDGSTSYADSVKGRFTISRDNAKNTVYLQMNSQKPEDTAVYYCAKDFFEHSPVSHTYSSSKYDYWGQGTQVTVSS	low polyreactivity
QVQLVESGGGLVQAGGSLRLSCAASGRIFVKYAMGWYRQAPGKERELVAAITKSGSSTYYADSVKGRFTISRDNAKNTVYLQMNSLKPEDTAVYYCAALTISRSRTGYYWGQGTQVTVSS	low polyreactivity
QVQLVESGGGLVQAGGSLRLSCAASGRIFVLYAMGWYRQAPGKERELVAAISTSGGSTYYADSVKGRFTISRDNAKNTVYLQMNSLKPEDTAVYYCAADRSARFLFIQYYPYGMDYWGQGTQVTVSS	high polyreactivity
QVQLVESGGGLVQAGGSLRLSCAASGRIFVLYAMGWYRQAPGKERELVADITVSGGSTYYADSVKGRFTISRDNAKNTVYLQMNSLKPEDTAVYYCAADQRYWKFDSWGQGTQVTVSS	high polyreactivity
QVQLVESGGGLVQAGGSLRLSCAASGRIFVPNAMGWYRQAPGKERELVARISRSDGSTYYADSVKGRFTISRDNAKNTVYLQMNSLKPEDTAVYYCAASTTPRWWSFKYYYWGQGTEVTVSS	high polyreactivity
QVQLVESGGGLVQAGGSLRLSCAASGRIFVPYAMGWSRQAPGKERELVAAISWRGGSTNYADSVKGRFTISRDNAKNTVYLQMNSLKPEDTAVYYCAAVPVRYRYSYGYYYWGQGTQVTVSS	high polyreactivity
QVQLVESGGGLVQAGGSLRLSCAASGRIFVPYAMGWYRQAPGKERELVAAITWRGGSTYYADSVKGRFTISRDNAKNTVYLQMNSLKPEDTAVYYCNADEASPWFWFSHLQVGMDYWGQGTQVTVSS	low polyreactivity
QVQLVESGGGLVQAGGSLRLSCAASGRIFVPYTMGWYRQAPGKERELVAAISRSGGSTYYADSVKGRFTISRDNAKNTVYLQMNSLKPEDTAVYYCAARATNVYSKMDYWGQGTQVTVSS	high polyreactivity
QVQLVESGGGLVQAGGSLRLSCAASGRIFVPYTMGWYRQAPGKEWELVAAISRSGGSTYYADSVKGRFTISRDNAKNTVYLQMNSLKPEDTAVYYCAARATNVYSKMDSWGQGTQVTVSS	high polyreactivity
QVQLVESGGGLVQAGGSLRLSCAASGRIFVRNAMGWYRQAPGKERELVAAITRTGASTYYADSVKGRFTISRDNAKNTVYLQMNSLKPEDTAVYYCAAVWGWPYWVYRYDYWGQGTQVTVSS	high polyreactivity
QVQLVESGGGLVQAGGSLRLSCAASGRIFVRNAMGWYRQAPGKERELVAAITSGAGSTNYADSVKGRFTISRDNAKNTVYLQMNSLKPEDTAVYYCAADYETGAVSILDDYWGQGTQVTVSS	low polyreactivity
QVQLVESGGGLVQAGGSLRLSCAASGRIFVRNAMGWYRQAPGKERELVADITNGGSTNYADSVKGRFTISRDNAKNTVYLQMNSLKPEYTAVYYCAADTLGVYDGDYWGQGTQVTVSS	low polyreactivity
QVQLVESGGGLVQAGGSLRLSCAASGRIFVRNAMGWYRQAPGKERELVAGISKRGSRTYYADSVKGRFTISRDNPKNTVYLQMNSLKPEDTAVYYCAVRSYIASYRDARIRFYYWGQGTQVTVSS	high polyreactivity
QVQLVESGGGLVQAGGSLRLSCAASGRIFVRNAMGWYRQAPGKERELVASISSSSGSTYYADSVKGRFTISRDNAKNTVYIQMNSLKPEDTAVYYCNAGYHFVHWPHVKHKKFDYWGQGTQVTVSS	low polyreactivity
QVQLVESGGGLVQAGGSLRLSCAASGRIFVRNPMGWYRQAPGKERELVADITNGGSTNYADSVKGRFTISRDNAKNTVYLQMNSLKPEDTAVYYCAATYPYSWVYSGYYYWGQGTQVTVSS	low polyreactivity
